Consider two molecules from publication PMC8967715 (2022).

Experiment in all cases: FACS
Experiment [1] deals with BtKY72 RBD, yeast-displayed (bat sarbecovirus BtKY72).
A further experiment concerns the target WIV1.
The target in experiment [2] is SARS-CoV-2 RBD (Wuhan-Hu-1, Asn331–Thr531), yeast-displayed (SARS-CoV-2 (Wuhan-Hu-1), UniProt P0DTC2 331-531).

B1: R. affinis 787 ACE2 residues 19–615 with C-terminal human IgG1 Fc (Genscript) (Fc fusion)
chain: STTEDRAKIFLDNFNREAEELSYQSSLASWEYNTNISDENVQKMDEAGAKWSAFYEEQSKLAKNYPLEEIQTVPVKLQLQILQQSGSPVLSEDKSKRLNSILNAMSTIYSTGKVCKPNNPQECFLLEPGLDNIMGTSKDYNERLWAWEGWRAEVGKQLRPLYEEYVVLKNEMARGYHYEDYGDYWRRDYETEESSGSGYSRDQLMKDVDRIFTEIKPLYEHLHAYVRTKLMDTYPFHISPTGCLPAHLLGDMWGRFWTNLYPLTVPFGQKPNIDVTDAMVNQGWDANRIFKEAEKFFVSVGLPNMTEGFWNNSMLTEPGDGRKVVCHPTAWDLGKGDFRIKMCTKVTMEDFLTAHHEMGHIQYDMAYATQPYLLRNGANEGFHEAVGEVMSLSVATPKHLKTMGLLSPDFLEDNETEINFLLKQALNIVGTLPFTYMLEKWRWMVFRGEIPKEEWMKKWWEMKRDLVGVVEPVPHDETYCDPASLFHVANDYSFIRYYTRTIFEFQFHEALCRIAQHDGPLHKCDISNSTDAGKKLHQMLSVGKSQPWTVTLKDIVDSRNMDVGPLLRYFEPLYTWLQEQNRKSYVGWNTDWSPYSD
On to B1, for which binding in experiment [1] was characterised by a dissociation constant (Kd) of 0.1 µM.

B2: Mouse (Mus musculus) ACE2 (residues 18–740) with His tag and human IgG1 Fc (Fc fusion)
chain: QSLTEENAKTFLNNFNQEAEDLSYQSSLASWNYNTNITEENAQKMSEAAAKWSAFYEEQSKTAQSFSLQEIQTPIIKRQLQALQQSGSSALSADKNKQLNTILNTMSTIYSTGKVCNPKNPQECLLLEPGLDEIMATSTDYNSRLWAWEGWRAEVGKQLRPLYEEYVVLKNEMARANNYNDYGDYWRGDYEAEGADGYNYNRNQLIEDVERTFAEIKPLYEHLHAYVRRKLMDTYPSYISPTGCLPAHLLGDMWGRFWTNLYPLTVPFAQKPNIDVTDAMMNQGWDAERIFQEAEKFFVSVGLPHMTQGFWANSMLTEPADGRKVVCHPTAWDLGHGDFRIKMCTKVTMDNFLTAHHEMGHIQYDMAYARQPFLLRNGANEGFHEAVGEIMSLSAATPKHLKSIGLLPSDFQEDSETEINFLLKQALTIVGTLPFTYMLEKWRWMVFRGEIPKEQWMKKWWEMKREIVGVVEPLPHDETYCDPASLFHVSNDYSFIRYYTRTIYQFQFQEALCQAAKYNGSLHKCDISNSTEAGQKLLKMLSLGNSEPWTKALENVVGARNMDVKPLLNYFQPLFDWLKEQNRNSFVGWNTEWSPYADQSIKVRISLKSALGANAYEWTNNEMFLFRSSVAYAMRKYFSIIKNQTVPFLEEDVRVSDLKPRVSFYFFVTSPQNVSDVIPRSEVEDAIRMSRGRINDVFGLNDNSLEFLGIHPTLEPPYQPPVT
B2: the values for the dissociation constant Kd (with WIV1; in experiment [2]) were about 3.98 µM and over 10 µM, respectively.
